Measurements: the supplement of paper PMC5998384

Legend:
HeLa Kyoto [1] = assay: solubility in G1/S (NP-40 vs SDS abundance) (log2 ratio); higher = more soluble; conditions: cell cycle stage: G1/S
HeLa Kyoto [2] = assay: solubility change mitosis vs G1/S (difference of NP-40 vs SDS log2 ratios) (log2 ratio difference); higher = more soluble in mitosis
HeLa Kyoto [3] = assay: melting temperature (median over replicates), in situ; higher = more thermally stable
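For melting temperature (median over replicates), in situ in this document: HeLa Kyoto cells synchronized by double thymidine or nocodazole block, proteins quantified by TMT10plex mass spectrometry, three independent biological replicates.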
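For solubility change mitosis vs G1/S (difference of NP-40 vs SDS log2 ratios) in this document: synchronized HeLa Kyoto cells (double thymidine block for G1/S, nocodazole release for mitosis), protein amounts in NP-40 versus SDS lysates quantified by mass spectrometry, three biological replicates.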
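For solubility in G1/S (NP-40 vs SDS abundance) in this document: HeLa Kyoto cells arrested at G1/S by double thymidine block, proteins quantified by TMT10plex mass spectrometry in mild NP-40 versus SDS extracts, three biological replicates.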

Row | Substance | solubility in G1/S (log2) (HeLa Kyoto [1]) | solubility change mitosis (log2) (HeLa Kyoto [2]) | melting temperature (HeLa Kyoto [3]; cell cycle stage: G1/S) [°C] | melting temperature (HeLa Kyoto [3]; cell cycle stage: mitosis) [°C]
1 | MAEYLASIFGTEKDKVNCSFYFKIGACRHGDRCSRLHNKPTFSQTIALLNIYRNPQNSSQSADGLRCAVSDVEMQEHYDEFFEEVFTEMEEKYGEVEEMNVCDNLGDHLVGNVYVKFRREEDAEKAVIDLNNRWFNGQPIHAELSPVTDFREACCRQYEMGECTRGGFCNFMHLKPISRELRRELYGRRRKKHRSRSRSRERRSRSRDRGRGGGGGGGGGGGGRERDRRRSRDRERSGRF [U2AF1] | -0.457 | 0.342 | 46.8 | 48.2
2 | USP32 | -0.319 | -0.0623 | 50.4 | 50.3
3 | MAFWCQRDSYAREFTTTVVSCCPAELQTEGSNGKKEVLSGFQVVLEDTVLFPEGGGQPDDRGTINDISVLRVTRRGEQADHFTQTPLDPGSQVLVRVDWERRFDHMQQHSGQHLITAVADHLFKLKTTSWELGRFRSAIELDTPSMTAEQVAAIEQSVNEKIRDRLPVNVRELSLDDPEVEQVSGRGLPDDHAGPIRVVNIEGVDSNMCCGTHVSNLSDLQVIKILGTEKGKKNRTNLIFLSGNRVLKWMERSHGTEKALTALLKCGAEDHVEAVKKLQNSTKILQKNNLNLLRDLAVHIAHSLRNSPDWGGVVILHRKEGDSEFMNIIANEIGSEETLLFLTVGDEKGGGLFLLAGPPASVETLGPRVAEVLEGKGAGKKGRFQGKATKMSRRMEAQALLQDYISTQSAKE [AARSD1] | 0.18 | -0.0164 | 49.8 | 49.9
4 | MGRKVTVATCALNQWALDFEGNLQRILKSIEIAKNRGARYRLGPELEICGYGCWDHYYESDTLLHSFQVLAALVESPVTQDIICDVGMPVMHRNVRYNCRVIFLNRKILLIRPKMALANEGNYRELRWFTPWSRSRHTEEYFLPRMIQDLTKQETVPFGDAVLVTWDTCIGSEICEELWTPHSPHIDMGLDGVEIITNASGSHQVLRKANTRVDLVTMVTSKNGGIYLLANQKGCDGDRLYYDGCAMIAMNGSVFAQGSQFSLDDVEVLTATLDLEDVRSYRAEISSRNLAASRASPYPRVKVDFALSCHEDLLAPISEPIEWKYHSPEEEISLGPACWLWDFLRRSQQAGFLLPLSGGVDSAATACLIYSMCCQVCEAVRSGNEEVLADVRTIVNQISYTPQDPRDLCGRILTTCYMASKNSSQETCTRARELAQQIGSHHISLNIDPAVKAVMGIFSLVTGKSPLFAAHGGSSRENLALQNVQARIRMVLAYLFAQLSLWSRGVHGGLLVLGSANVDESLLGYLTKYDCSSADINPIGGISKTDLRAFVQFCIQRFQLPALQSILLAPATAELEPLADGQVSQTDEEDMGMTYAELSVYGKLRKVAKMGPYSMFCKLLGMWRHICTPRQVADKVKRFFSKYSMNRHKMTTLTPAYHAENYSPEDNRFDLRPFLYNTSWPWQFRCIENQVLQLERAEPQSLDGVD [NADSYN1] | 0.157 | -0.234 | – | 56.3
5 | RCOR3 | 0.375 | 0.101 | 49.1 | 50
6 | MGEEANDDKKPTTKFELERETELRFEVEASQSVQLELLTGMAEIFGTELTRNKKFTFDAGAKVAVFTWHGCSVQLSGRTEVAYVSKDTPMLLYLNTHTALEQMRRQAEKEEERGPRVMVVGPTDVGKSTVCRLLLNYAVRLGRRPTYVELDVGQGSVSIPGTMGALYIERPADVEEGFSIQAPLVYHFGSTTPGTNIKLYNKITSRLADVFNQRCEVNRRASVSGCVINTCGWVKGSGYQALVHAASAFEVDVVVVLDQERLYNELKRDLPHFVRTVLLPKSGGVVERSKDFRRECRDERIREYFYGFRGCFYPHAFNVKFSDVKIYKVGAPTIPDSCLPLGMSQEDNQLKLVPVTPGRDMVHHLLSVSTAEGTEENLSETSVAGFIVVTSVDLEHQVFTVLSPAPRPLPKNFLLIMDIRFMDLK [CLP1] | -0.181 | -0.0019 | 46.9 | 48.8
7 | MTGGRFDFDDGGTYCGGWEEGKAHGHGICTGPKGQGEYSGSWSHGFEVVGGYTWPSGNTYQGYWAQGKRHGLGVETKGKWMYRGEWSHGFKGRYGVRQSLCTPARYEGTWSNGLQDGYGVETYGDGGTYQGQWAGGMRHGYGVRQSVPYGMATVIRSPLRTSLASLRSEQSNGSVLHDAAAAADSPAGTRGGFVLNFHADAELAGKKKGGLFRRGSLLGSMKLRKSESKSSISSKRSSVRSDAAMSRISSSDANSTISFGDVDCDFCPVEDHVDATTTETYMGEWKNDKRNGFGVSERSNGMKYEGEWANNKRHGYGCTVFPDGSKEEGKYKNNILVRGIRKQLIPIRHTKTREKVDRAIEGAQRAAAMARTKVEIANSRTAHARAKADAADQAALAARQECDIARAVARELSPDFYQPGPDYVKQRFQEGVDAKENPEEKVPEKPPTPKESPHFYRKGTTPPRSPEASPKHSHSPASSPKPLKKQNPSSGARLNQDKRSVADEQVTAIVNKPLMSKAPTKEAGAVVPQSKYSGRHHIPNPSNGELHSQYHGYYVKLNAPQHPPVDVEDGDGSSQSSSALVHKPSANKWSPSKSVTKPVAKESKAEPKAKKSELAIPKNPASNDSCPALEKEANSGPNSIMIVLVMLLNIGLAILFVHFLT [JPH1] | -0.419 | 0.108 | – | 51.7
8 | MADSSPALSLREGGPRAPRPSAPSPPPRSRSGSESEEAELSLSLARTKTRSYGSTASVRAPLGAGVIERHVEHRVRAGDTLQGIALKYGVTMEQIKRANKLFTNDCIFLKKTLNIPVISEKPLLFNGLNSIDSPENETADNSFSQEEEPVVAGEDLPPPSPQESDVQPVQPEEVSARDFLQRLDLQIKLSTQAAKKLKEESRDEESPYATSLYHS [LYSMD2] | 0.0316 | -0.0367 | 52 | 51.8
